PMC9458440, “Cryo-EM structure of the Smc5/6 holo-complex” (Nucleic Acids Research, 2022)

Tests used:
Assay in all cases: cryo-EM structure; BS3-crosslinked six-subunit holo-complex, apo / non-liganded; fractions from Superose 6 diluted to 20 mM HEPES.NaOH pH 7.5, 50 mM NaCl, 0.5 mM TCEP, 0.1 mg/ml; maps at 10.8 Å (holo-complex), 8.53 Å (hinge/arm) and 6.5 Å (head-only); pseudo-atomic model built from homology and AlphaFold models
Conditions in all cases: both partners purified
[1] = molecular target: T1, Nse1, subunit of the S. cerevisiae Smc5/6 holo-complex (S. cerevisiae, UniProt Q07913 1-336)
T1 construct: Nse1, Saccharomyces cerevisiae; the model holds amino acids 11-336; also called KITE subunit; source: recombinant, expressed in insect cells, purified as holo-complex (Superose 6 SEC), BS3-crosslinked
T1 sequence: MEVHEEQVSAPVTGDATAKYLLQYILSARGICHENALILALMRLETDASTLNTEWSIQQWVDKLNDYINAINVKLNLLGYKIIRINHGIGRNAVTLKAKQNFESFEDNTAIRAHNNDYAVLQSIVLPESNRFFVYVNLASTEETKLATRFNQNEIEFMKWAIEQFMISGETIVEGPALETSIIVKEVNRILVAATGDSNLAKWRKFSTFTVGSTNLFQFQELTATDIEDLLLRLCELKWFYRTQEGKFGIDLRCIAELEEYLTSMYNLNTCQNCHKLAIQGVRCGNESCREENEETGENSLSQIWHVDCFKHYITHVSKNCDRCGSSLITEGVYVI

[2] = molecular target: T2, Smc5 (Walker B mutant E1015Q), subunit of the S. cerevisiae Smc5/6 holo-complex (S. cerevisiae, UniProt Q08204 1-1093, E1015Q)
T2 construct: Smc5, Saccharomyces cerevisiae; the model holds amino acids 35-390, 394-882, 884-1068; The complex was crosslinked with BS3; also called κ-SMC; source: recombinant, expressed in insect cells, purified as holo-complex (Superose 6 SEC), BS3-crosslinked
T2 sequence: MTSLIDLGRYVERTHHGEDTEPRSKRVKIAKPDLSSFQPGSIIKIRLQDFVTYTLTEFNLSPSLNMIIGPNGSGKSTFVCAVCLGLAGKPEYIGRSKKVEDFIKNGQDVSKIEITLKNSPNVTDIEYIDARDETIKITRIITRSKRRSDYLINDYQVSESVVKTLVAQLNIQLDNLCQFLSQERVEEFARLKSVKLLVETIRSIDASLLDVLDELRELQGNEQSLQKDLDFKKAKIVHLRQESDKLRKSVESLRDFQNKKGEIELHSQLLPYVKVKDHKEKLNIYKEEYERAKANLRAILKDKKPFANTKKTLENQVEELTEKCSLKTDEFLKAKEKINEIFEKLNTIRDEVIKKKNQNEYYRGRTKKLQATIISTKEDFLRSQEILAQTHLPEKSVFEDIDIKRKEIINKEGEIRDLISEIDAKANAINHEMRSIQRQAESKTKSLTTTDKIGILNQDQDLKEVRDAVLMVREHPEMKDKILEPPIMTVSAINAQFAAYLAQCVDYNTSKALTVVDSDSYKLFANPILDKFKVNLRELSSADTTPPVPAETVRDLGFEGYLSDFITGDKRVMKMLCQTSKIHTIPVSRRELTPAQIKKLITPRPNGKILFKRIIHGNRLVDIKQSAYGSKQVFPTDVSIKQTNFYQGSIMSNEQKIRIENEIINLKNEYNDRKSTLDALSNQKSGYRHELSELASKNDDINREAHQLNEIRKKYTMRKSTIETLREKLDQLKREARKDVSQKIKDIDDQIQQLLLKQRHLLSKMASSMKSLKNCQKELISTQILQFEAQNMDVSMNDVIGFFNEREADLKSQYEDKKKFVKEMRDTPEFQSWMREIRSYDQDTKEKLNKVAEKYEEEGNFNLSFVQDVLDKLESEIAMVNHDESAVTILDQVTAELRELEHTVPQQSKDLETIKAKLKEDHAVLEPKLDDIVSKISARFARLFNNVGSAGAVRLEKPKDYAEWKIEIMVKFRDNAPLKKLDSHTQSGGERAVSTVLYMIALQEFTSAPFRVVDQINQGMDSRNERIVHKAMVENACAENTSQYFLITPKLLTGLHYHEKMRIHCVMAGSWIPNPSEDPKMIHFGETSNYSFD

[3] = molecular target: T3, Nse4 with HaloTag, kleisin subunit of the S. cerevisiae Smc5/6 holo-complex (S. cerevisiae, UniProt P43124 1-402)
T3 construct: Nse4, Saccharomyces cerevisiae; the model holds amino acids 40-124, 184-202, 213-245, 283-402; Density of the HaloTag attached to Nse4 was removed by particle subtraction, so the tag was on the protein on the grid; its end is told only for the yeast strain (C-terminal), not for the recombinant protein; source: recombinant, expressed in insect cells, purified as holo-complex (Superose 6 SEC), …
T3 sequence: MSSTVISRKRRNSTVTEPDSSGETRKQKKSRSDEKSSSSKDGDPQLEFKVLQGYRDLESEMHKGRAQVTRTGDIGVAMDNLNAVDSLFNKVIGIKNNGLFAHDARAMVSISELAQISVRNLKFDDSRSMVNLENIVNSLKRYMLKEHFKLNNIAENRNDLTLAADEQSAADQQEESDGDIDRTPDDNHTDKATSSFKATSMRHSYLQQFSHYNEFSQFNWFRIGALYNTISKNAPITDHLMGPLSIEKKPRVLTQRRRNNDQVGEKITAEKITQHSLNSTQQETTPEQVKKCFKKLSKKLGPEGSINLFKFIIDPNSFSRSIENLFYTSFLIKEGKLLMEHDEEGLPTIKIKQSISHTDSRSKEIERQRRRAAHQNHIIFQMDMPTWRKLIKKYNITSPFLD

Measured: binding result

B1: Nse3, subunit of the S. cerevisiae Smc5/6 holo-complex (natural protein)
chain: MSSIDNDSDVDLTEDLAVAKIVKENPVARKMVRYILSRGESQNSIITRNKLQSVIHEAAREENIAKPSFSKMFMDINAILYNVYGFELQGLPSKNNMNAGGNGSNSNTNKSMPEPLGHRAQKFILLNNVPHSKNFDDFKILQSAHTYEELIVTGEYIGDDIASGTSNTLESKLSTDRDLVYKGVLSVILCIVFFSKNNILHQELIKFLETFGIPSDGSKIAILNITIEDLIKSLEKREYIVRLEEKSDTDGEVISYRIGRRTQAELGLESLEKLVQEIMGLEKEQTKSLHDDIIKSIGDSYSI
notes: Nse3, Saccharomyces cerevisiae; the model holds amino acids 9-99, 114-152, 173-303; also called KITE subunit; source: recombinant, expressed in insect cells, purified as holo-complex (Superose 6 SEC), BS3-crosslinked
binds: all assays above
